The values below come from patent US20120328616A1.

The target in this experiment is human FGFR1c/human β-Klotho complex (FGF21 receptor) (human) (UniProt P11362). Description: cell-based or functional assay.

Consider human FGF21 (ligand), for which the EC50, pERK Human Adipocyte Assay turned out to be 0.623 nM.
